In paper PMC8643669 (Nucleic Acids Research, 2021):

T1: purified recombinant nuclear cap-binding complex (CBC; heterodimer of CBP80 and CBP20) (human, UniProt Q09161;P52298)
T1 sequence 1: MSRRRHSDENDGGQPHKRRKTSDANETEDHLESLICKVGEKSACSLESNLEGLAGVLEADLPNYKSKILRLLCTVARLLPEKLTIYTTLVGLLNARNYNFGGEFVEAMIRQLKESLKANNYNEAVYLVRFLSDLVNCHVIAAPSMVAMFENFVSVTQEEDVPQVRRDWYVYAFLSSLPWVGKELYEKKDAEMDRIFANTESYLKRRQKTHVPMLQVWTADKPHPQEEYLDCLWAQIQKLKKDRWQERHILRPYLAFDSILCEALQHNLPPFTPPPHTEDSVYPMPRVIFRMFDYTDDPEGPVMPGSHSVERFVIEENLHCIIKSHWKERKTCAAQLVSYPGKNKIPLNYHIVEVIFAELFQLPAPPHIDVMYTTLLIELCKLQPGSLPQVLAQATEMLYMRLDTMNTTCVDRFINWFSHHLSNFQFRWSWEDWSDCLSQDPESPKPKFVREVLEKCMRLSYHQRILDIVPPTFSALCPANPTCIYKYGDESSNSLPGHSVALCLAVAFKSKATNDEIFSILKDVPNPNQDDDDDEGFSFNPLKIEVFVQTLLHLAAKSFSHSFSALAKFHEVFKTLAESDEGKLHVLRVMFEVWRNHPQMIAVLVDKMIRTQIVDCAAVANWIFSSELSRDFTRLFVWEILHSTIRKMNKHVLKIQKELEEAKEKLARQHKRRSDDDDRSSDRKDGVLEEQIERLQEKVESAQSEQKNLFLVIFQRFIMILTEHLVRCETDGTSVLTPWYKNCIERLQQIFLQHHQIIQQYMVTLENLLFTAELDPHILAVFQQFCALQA
T1 sequence 2: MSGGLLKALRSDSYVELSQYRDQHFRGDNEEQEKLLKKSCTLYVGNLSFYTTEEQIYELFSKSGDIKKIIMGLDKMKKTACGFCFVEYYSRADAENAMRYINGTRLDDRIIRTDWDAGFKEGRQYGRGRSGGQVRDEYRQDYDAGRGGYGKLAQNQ

T2: CBP80, subunit of the purified recombinant CBC (human, UniProt Q09161 1-790)
T2 sequence: T1 sequence 1

B1: purified recombinant FLAG-SRP54-NG (residues 1-293) (domain or fragment)
chain: MVLADLGRKITSALRSLSNATIINEEVLNAMLKEVCTALLEADVNIKLVKQLRENVKSAIDLEEMASGLNKRKMIQHAVFKELVKLVDPGVKAWTPTKGKQNVIMFVGLQGSGKTTTCSKLAYYYQRKGWKTCLICADTFRAGAFDQLKQNATKARIPFYGSYTEMDPVIIASEGVEKFKNENFEIIIVDTSGRHKQEDSLFEEMLQVANAIQPDNIVYVMDASIGQACEAQAKAFKDKVDVASVIVTKLDGHAKGGGALSAVAATKSPIIFIGTGEHIDDFEPFKTQPFISK
B2: FLAG-SRP54 full-length (p3×FLAG-SRP54-FL) (natural protein)
chain: MVLADLGRKITSALRSLSNATIINEEVLNAMLKEVCTALLEADVNIKLVKQLRENVKSAIDLEEMASGLNKRKMIQHAVFKELVKLVDPGVKAWTPTKGKQNVIMFVGLQGSGKTTTCSKLAYYYQRKGWKTCLICADTFRAGAFDQLKQNATKARIPFYGSYTEMDPVIIASEGVEKFKNENFEIIIVDTSGRHKQEDSLFEEMLQVANAIQPDNIVYVMDASIGQACEAQAKAFKDKVDVASVIVTKLDGHAKGGGALSAVAATKSPIIFIGTGEHIDDFEPFKTQPFISKLLGMGDIEGLIDKVNELKLDDNEALIEKLKHGQFTLRDMYEQFQNIMKMGPFSQILGMIPGFGTDFMSKGNEQESMARLKKLMTIMDSMNDQELDSTDGAKVFSKQPGRIQRVARGSGVSTRDVQELLTQYTKFAQMVKKMGGIKGLFKGGDMSKNVSQSQMAKLNQQMAKMMDPRVLHHMGGMAGLQSMMRQFQQGAAGNMKGMMGFNNM

Key:
[1] = molecular target: T1, purified recombinant nuclear …; experiment: pull-down
[2] = molecular target: T2, CBP80, subunit of the purified …; experiment: far-Western, overlay or dot blot

Binder	binding result [1]	binding result [2]
B1	binds	
B2		binds
